Results published in the supplement of paper PMC10598134.
± gives the standard deviation.

Assay: collision cross section of modified peptide (TIMS, N2, iRT-aligned); higher = larger / more extended gas-phase ion
Method: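 1/K0 was aligned run-wise to spiked iRT peptides and converted to CCS in N2 (Mason-Schamp). Values are the mean of 1-3 technical replicates for the most abundant feature at each charge state.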

[1] = charge state: 2, modification: Butyryl
[2] = charge state: 2, modification: hydroxyisobutyryl
[3] = charge state: 3, modification: hydroxyisobutyryl
[4] = charge state: 2, modification: Methyl (K)
[5] = charge state: 3, modification: Methyl (K)
[6] = charge state: 2, modification: Succinyl
[7] = charge state: 2, modification: Acetyl (K)
[8] = charge state: 3, modification: Acetyl (K)
[9] = charge state: 2, modification: GlyGly (K)
[10] = charge state: 3, modification: GlyGly (K)
[11] = charge state: 2, modification: Nitro (Y)
[12] = charge state: 2, modification: Malonyl
[13] = charge state: 2, modification: Dimethyl (K)
[14] = charge state: 2, modification: Citrullination (R)
[15] = charge state: 2, modification: Formyl
[16] = charge state: 3, modification: Formyl
[17] = charge state: 3, modification: Malonyl

“GTVPDDAVEALADSLGKK [_GTVPDDAVEALADSLGK(Butyryl)K_]” showed a collision cross section [1] of 458.53 ± 0.36 Å² and a collision cross section (charge state: 3, modification: Butyryl) of 534.24 ± 1.4 Å².

“DHLSDKESK [_DHLSDK(hydroxyisobutyryl)ESK_]” gave a collision cross section [2] of 357.61 ± 1.9 Å² and a collision cross section [3] of 415.53 ± 4.4 Å².

For VETTVTSLKTK [_VETTVTSLK(Methyl (K))TK_], the collision cross section [4] was 381.5 ± 1.8 Å² and the collision cross section [5] was 455.24 ± 7.2 Å².

For “DFDTALKHYDK [_DFDTALK(hydroxyisobutyryl)HYDK_]”, the collision cross section [2] was 409.01 ± 0.39 Å² and the collision cross section [3] was 468.72 ± 1.9 Å².

With ALLQAKASGK [_ALLQAK(Succinyl)ASGK_] the collision cross section [6] was 349.13 ± 0.82 Å².

“DYSSGFGGKYGVQADR [_DYSSGFGGK(hydroxyisobutyryl)YGVQADR_]” gave a collision cross section [2] of 442.2 ± 0.79 Å².

With “GADFLVTEVENGGSLGSKK [_GADFLVTEVENGGSLGSK(Acetyl (K))K_]” the collision cross section [7] was 465.51 Å² and the collision cross section [8] was 541.97 Å².

For SEASSEFAKK [_SEASSEFAK(Methyl (K))K_], the collision cross section [4] was 357.88 ± 2.5 Å² and the collision cross section [5] was 426.48 ± 2.6 Å².

“DYSSGFGGKYGVQADR [_DYSSGFGGK(GlyGly (K))YGVQADR_]” showed a collision cross section [9] of 440.03 ± 1.4 Å² and a collision cross section [10] of 489.79 ± 1.3 Å².

Work on SGFGKFER [_SGFGK(Crotonyl)FER_] yielded a collision cross section (charge state: 2, modification: Crotonyl) of 337.57 ± 1.3 Å².

Sequence “VGVEVPDVNIEGPEGKLK [_VGVEVPDVNIEGPEGK(Butyryl)LK_]” has a collision cross section [1] of 461.93 ± 0.5 Å².

Work on “HHAAYVNNLNVTEEK [_HHAAY(Nitro (Y))VNNLNVTEEK_]” yielded a collision cross section [11] of 438.46 Å² and a collision cross section (charge state: 3, modification: Nitro (Y)) of 499.02 ± 3.6 Å².

With “AIEINPDSAQPYK [_AIEINPDSAQPY(Nitro (Y))K_]” the collision cross section [11] was 401.15 ± 0.18 Å².

SGFGKFER [_SGFGK(Malonyl)FER_] gave a collision cross section [12] of 335.56 Å².

KFGVLSDNFK [_K(Dimethyl (K))FGVLSDNFK_] gave a collision cross section [13] of 367.27 ± 1.5 Å².

“GETASKLQSEISR [_GETASK(hydroxyisobutyryl)LQSEISR_]” gave a collision cross section [2] of 394.7 ± 0.81 Å².

TPNLYIYSKK [_TPNLYIYSK(Succinyl)K_] gave a collision cross section [6] of 387.96 ± 0.52 Å².

For “RLPTTGYLVYR [_R(Citrullination (R))LPTTGYLVYR_]”, the collision cross section [14] was 383.11 ± 0.23 Å².

Sequence “IVFSGNLFQHQEDSKK [_IVFSGNLFQHQEDSK(Trimethyl (K))K_]” has a collision cross section (charge state: 3, modification: Trimethyl (K)) of 536.81 ± 0.89 Å².

In the case of “AAQASDLEKIHLDEK [_AAQASDLEK(Formyl)IHLDEK_]”, the collision cross section [15] is reported as 452.43 ± 0.71 Å² and the collision cross section [16] is reported as 490.12 ± 2.1 Å².

Work on “GTISAPGKVVTAAAQAK [_GTISAPGK(Malonyl)VVTAAAQAK_]” yielded a collision cross section [12] of 432.93 ± 5.1 Å² and a collision cross section [17] of 519.93 ± 1.9 Å².

Sequence “LQDVSGQLSSSKK [_LQDVSGQLSSSK(Acetyl (K))K_]” has a collision cross section [7] of 396.87 ± 1.3 Å² and a collision cross section [8] of 461.64 ± 3.7 Å².

For “TQDQISNIKYHEEFEK [_TQDQISNIK(Malonyl)YHEEFEK_]”, the collision cross section [17] was 548.96 ± 0.016 Å².

In the case of “ASDTSSETVFGKR [_ASDTSSETVFGK(Gluratylation)R_]”, the collision cross section (charge state: 2, modification: Glutarylation) is reported as 400.66 ± 0.51 Å² and the collision cross section (charge state: 3, modification: Glutarylation) is reported as 483.77 ± 1.7 Å².

In the case of “GTVPDDAVEALADSLGKK [_GTVPDDAVEALADSLGK(hydroxyisobutyryl)K_]”, the collision cross section [2] is reported as 460.24 ± 0.81 Å² and the collision cross section [3] is reported as 537.74 ± 2.1 Å².

Sequence “LEKTIDDLEEK [_LEK(Dimethyl (K))TIDDLEEK_]” has a collision cross section [13] of 401.15 ± 1.1 Å² and a collision cross section (charge state: 3, modification: Dimethyl (K)) of 461.19 ± 2.1 Å².

IGNSYFKEEK [_IGNSYFK(GlyGly (K))EEK_] showed a collision cross section [9] of 386.48 ± 0.54 Å² and a collision cross section [10] of 442.05 ± 1.6 Å².

PSVSTKLISK [_PSVSTK(Propionyl)LISK_] gave a collision cross section (charge state: 2, modification: Propionyl) of 354.68 ± 0.33 Å².

In the case of “HELQANCYEEVKDR [_HELQANCYEEVK(GlyGly (K))DR_]”, the collision cross section [10] is reported as 529.53 ± 1.6 Å².

“GEPGLPGHPGK [_GEPGLP(Hydroxyproline)GHPGK_]” showed a collision cross section (charge state: 2, modification: Hydroxyproline) of 337.36 ± 0.3 Å².

Work on “EVVKPVPITSPAVSK [_EVVKPVPIT(HexNAc (ST))SPAVSK_]” yielded a collision cross section (charge state: 2, modification: HexNAc (ST)) of 445.83 ± 0.56 Å² and a collision cross section (charge state: 3, modification: HexNAc (ST)) of 512.07 ± 2.8 Å².

Sequence “SLGEPAAGEGSAKR [_SLGEPAAGEGSAK(Formyl)R_]” has a collision cross section [15] of 375.91 ± 0.55 Å² and a collision cross section [16] of 481.8 Å².

Sequence “GSGLGARGSSYGVTSTESYK [_GSGLGAR(Citrullination (R))GSSYGVTSTESYK_]” has a collision cross section [14] of 458.29 ± 0.18 Å² and a collision cross section (charge state: 3, modification: Citrullination (R)) of 548.1 Å².
